Source: publication PMC10395586
Several values for one entry are separate records, joined by “and”; a condition that tells them apart may be missing. Identical values can stand only once. Like-named read-outs stand apart in the source and are kept apart here.

Assays:
Experiment in all cases: native MS
[1] = target: cpTMV without any mutation at the S65 position (tobacco mosaic virus)
[2] = target: cpTMV-S65-3NY (tobacco mosaic virus)
[3] = target: cpTMV-S65-3NY (tobacco mosaic virus); remark: listed apart in the source
[4] = target: cpTMV-S65-pAF (tobacco mosaic virus)
[5] = target: cpTMV-S65C (tobacco mosaic virus)

cpTMV without any mutation at the S65 position
monomers per disk (monomers per disk) [1]: 16

cpTMV-S65-3NY
monomers per disk (monomers per disk) [2]: 17
monomers per disk (monomers per disk) [3]: 16

cpTMV-S65-pAF
monomers per disk (two-disk stack) (monomers per disk) [4]: 16 and 17

cpTMV-S65C
monomers per disk (monomers per disk) [5]: 16
